assay: soluble on expression in E. coli; label from the status in PepcDB or PDB records

Sequence	soluble on expression in E. coli
MSLQQYEILLDSGTNELEIVKFGVGENAFGINVMKVREIIQPVEVTSVPHSHQHVEGMIKLRGEILPVISLFSFFGVEPEGSKDEKYIVTEFNKRKIVFHVGSVSQIHRVSWEAIEKPTSLNQGMERHLTGIIKLEDLMIFLPDYEKIIYDIESDSGVDTYNMHTEGFDERRTDKKLIIVEDSPLLMRLLQDELKEAGYNNIASFENGKEAYEYIMNLAENETDLSKQIDMIITDIEMPKMDGHRLTKLLKENPKSSDVPVMIFSSLITDDLRHRGEVVGADEQISKPEISDLIKKVDTYVIEGHHHHHH	soluble
MTTEFNEIMKEINDSETIIIHRHVRPDPDAYGSQLGLKNYLKLKFPDKKIFAVGETEPSLDFIGTFDEISDDTYNEALVIVCDTANSPRISDERFNQGRLLVKIDHHPAVDQYGDINFVNDQASSTSEIIFDFISHFNDIPIIDASVARVLYLGIVGDTGRFLFNNTTSHTMGVAGQLLTFPFNHNEELNKMGEKDPKLLPFQGYVLQHFDLNEKGFCKVTITKEILEQFDIAANQASLFVNAIADIQGLKIWVFAVDEGTEIRCRIRSKGIVINDIASDFGGGGHPNASGVSVRDWAQFETLAEALNNKLLEHHHHHH	soluble
MNYLERLVESWPVEQCSAAVVTSDEVTTAGDGNIRYELASVTKLLSTYAVLIAVEEGAFALDTPCGPEGATVRHLLAHASGVGFRSTDACKAPEQRRIYSSYGFELLADVIAHEADMPFAQYLDEAVCQPIGMTHTQLWGSAGHESYSTVNDLVLFAREILQPSLIAQETLVQACTVQFPELHGIVPGYGMYKPCPWGLGFEIKGEKNPHWTAAVMPHTTVGHFGQAGTYLWVDRESQRAMVALTNRSFGDWAKPLWAETNAGVWEHLDQLNL	not soluble
MQKISRIVNSIYLTAELTAGTANTYDLIAEFFNFGPDSYNKLQSIDMKELKSGLEEIVSIHSELTYTDIDKRAEQRFRHLIEIRKEVEGVGSLEDIKDAQANYKSELETFKKTTFDTAGIEEFQNAVKNFIGAAADVEKYSNLEKLTDVDIMYARPLIYTLKTSIENLAKSYSSINSFDDFEKIRNPSEFVDPISKIVSGYKKYNASRTTIERDGNFAKGMQSNANNMKRLENVASVFEGLGSFVKNLQAVIDVRQTMHLPKYTVGFIDGTFDPKKVVTDLEDDWVQSVTHEMDLNRTINLLLPIGDHVSAIEASFLSSSSKQSKFFTGFKSSETEVSPVDGSIDSIISTSKKVSECIIAPLTYLESIKEVEILLQAIESLKKTVDTLVGTKELVNWVKTNDVVLKEVEALCSYTDEEKKDFESSVPIKLKGLKSSENYTSLIKTLNQSSLFADAVFSEKLSTTGQETAYILGGLQSLDAFYNSATDHIAFFDCLLNVAYYDLIPLAIDTLNKVRKMDVQPIRDGIDVVNDLFNVSNQLDELKTKLRELNDPNFSIAETPLSNPSLHTTTIGLSVRGVIRMKDEIDHRSDFDVVIENAEMVDQEMKNTGKKAINMVEFGSRLKKLKSELEGWKSNITVGGAHRIRRSTPSLADYAHIFQNALKVGGVDDDLKKLMDAVKDFEKTGKDAATKVKLKEVIASLNSLNSIGLQLSSFATPFTAIGQSFSALDAFFVSNGKIITTPAPIVSSSDIRSPTIEDATALVSFLYKLLNDFMKEEGDKGATNNGKLPLKAMYQFCKSILRIANLAPNNAIVESEKYSEQDRYSDVLCGMDNRILIDEDVCRRCYFKDQYINANYLELPNGNRMILTQAPMSRTEHFKPEKDKKRKNLYSLSDEEEEISYLVQTVDKFYQTIVQTGTEVVAMLCDFNEEGVEKCSSYFPLEKDGKQKFHNVNVCTTNVQHPSADVVLRTLVITSYLGEKKKTHTVKHYSYKGWIEKNAPELPREILNIFRVARNSKSLVVHCSNGIGRSAAFVSWELCYHFVPVNFEICDFSVAEFVYQKMIRSLDTTSTVNLDFLSLLTELRHSRPRAIHTPMQLAFSIMMVLDFVMNNFPKGEMEAKYQEIRKSYLHARQMMHKDLEFDGSDGKTVDIALDEDGHGIPEKKGKKKTNKKAAQQASVKKDEKSKKKSKKDSKKGSKMDMKTAEEGMKSLQKKAA	not soluble
VSFPSSPPALPAIVARFAVGRPVRAVWVNELGGVTFRVDSGMGAGCEFIKVARRGTADFANEARRLRWAAPYLAVPRVLGVGVDGDWAWLHTDALPGLSAVHPRWRASPQVAVPALGAGLRTLHDSLPVHSCPFDWSTASRLAKLAPARRAELGDSPPVDRLVVCHGDACSPNTILDDTGRCCGHVDFGNLGVADRWADLAVATLSLQWNFPDYPGQVRDDEFFAAYGVAPDPARIDYYRRLWQAEDDSSR	soluble
MGSDKIHHHHHHMHIADITMFYAPASGGVRTYLEAKRNRLAKLPGVTSSLLVPGAYHRSHGSIHEVPAPPLPFSQGYRFPLKRRGWQRELHRLAPDLIEAGDPYVTAWAALDAGRALDVPVVGFYHSDLPRLIGNRLGNWTRAALDRYVRNLYGHCDRVLAPSRVIADRLQTLGLDNVAVQPLGVDLTTFSPQRRQFAFRQRLGLDDDTRLLIFVGRGSREKNLSVLLDTARHLGKGYHLVLIGPQMPQRVPDNVSVIGRYTATADVADWLASSDILLHAGTQETFGLVALEAMASGIPVVAARAGALAENVPLGCGRLCEPHSAQDMARAVRELCADAPEEQGRRARQHVERHHDWDIVVSSLMHHYRELTGQRVNTESLQHG	not soluble
PMFEAAYDFPGSGSPSELPLKKGDVIYITREEPSGWSLGKLLDGSKEGWVPTAYMKPH	soluble
MVQIIFDSKTGNVQRFVNKTGFQQIRKVDEMDHVDTPFVLVTYTTNFGQVPASTQSFLEKYAHLLLGVAASGNKVWGDNFAKSADTISRQYQVPILHKFELSGTSKDVELFTQEVERVVTKSSAKMDPVK	soluble
MPMSTDVQGRALAVLNRVAQADWPDRFNLRKPFEKLLYSGSRTGFRLASERSAKQAKGPRKADPDGLFDLSFSDDQQMLVDMLEGFALEVLRPLAHDADAEASLPAELLNQALELGLTHYGVGEVHGGMAGERTTVTTALIAEALAKGDLTLAAALLVPLSAANCIRRWGSPSQQAQWLPAFVSEEGAPLTAIAVNEPSLLFDPQKLATRARRKGSHYLLSGEKCLVLRGLEASRLIVAAKTDEGPALFLVEASAKGVERRAEPAMGLKAGGTARLRLKSVKVPADNRLAAEHFDYRAFLDHASLAWCALALGTGQAALDYVIAYCNEREAFGEPISHRQGVAFMVADIAIELDAMRLMVWRACALAERGQPFQREAYLARLLCAEKAMKIGTDAVQLLGGHGFT	not soluble
GMTGKISALDLASGELSEPTKAYFAKCEEKLGLVPNVLKAYAFDDKKLRAFTDIYNDLMLGESGLSKLDREMIAVAVSSINHCYYCLTAHGAAVRQLSGDPALGEMLVMNFRAADLSPRQTAMLEFAVKLTEEPAKIVEADRAALRKAGFSDRDIWDIASTAAFFNMSNRVAAAIDMRPNDEYHAMAR	soluble
MGSDKIHHHHHHMIPPVPQKGRGTAHNPHNRFAPGHSVAEDDGWYQEVPQTQGTEVRIETAKSVISRNTSPDLPFDRSINPYRGCEHGCIYCYARPSHAYWDLSPGLDFETKLIAKTNAAEVLAQQLSKPGYVCAPINLGSNTDPYQPIEREQLLTRRLLEVLLRFRHPVTIVTKGSLVLRDLDLLAEMARQRLARVMISLTTLDDGLKRVLEPRAASPGARLRAIRVLREAGVPVGVLCSPMIPMINDSELERLLEAAKEAGAQSAAYMMLRLPLEVAPLFEQWLQDHYPQRAAHVLSLIRQSRGGELYDSRFGVRMRGEGVFAELLAQRFAKAMKRLDFEGREAQELDCSAFCPPGGQMALF	not soluble
MTVTTKLIDYSDEEGNNFEGVLYIPKNVKQSKVPAVLIFPAFRGITHFEKDKGQQIAELGFVAFVADVYGKGVRPTERADAFATMGPLVSNRVEKLKPRLFAAVNTLKTFSEVDTSKIAAIGYCFGGLCVLDLARYNAGLKGVVSYHGTLKPIPDIALDPIVGTTVYVHHGDADFHIAKDQVDGFHEEMRTRQADFVFVSHANAVHAFTEPEADSFNAPGIGYNEKAAKRSWNATLDLFKEIF	not soluble
MTPPPADDTSGKSGRRTELLDIAATLFAERGLRATTVRDIADAAGILSGSLYHHFDSKESMVDEILRGFLDDLFGKYREIVASGLDSRATLEALVTTSYEAIDASHSAVAIYQDEVKHLVANERFTYLSELNTEFRELWMGVLEAGVKDGSFRSDIDVELAFRFLRDTAWVAVRWYRPGGSVTVDTVAKQYLSIVLDGLASPHN	soluble
